In US20200123233A1 (published 2020):
Numbering of substitutions follows the chain as printed.

B1: PMP13A1 (VHH)
VHH: EVQLVESGGGLVQPGGSLRLSCAASGLTLDYYALGWFRQAPGKEREGVSCISSADHSTTYADSVKGRFTISWDNAKNTVYLQMNSLKPEDTAVYYCAADPALGCYSGNYYPRYDYWGQGTQVTVSS
B2: PMP19E2 (VHH)
VHH: B1 VHH with A54S, S57T, A61T, V79L, N108S, Y115F
B3: PMP1A2 (VHH)
VHH: EVQLVESGGGLVQAGGSLRLSCAASERTFSYYAMGWFRQAPGKEREFVATISRSGEWIYYKDAMKGRFTISRDNANNAVYLQMNSLQPEDTAIYYCAADSLGGFRSASDYYNTNTYAYWGQGTQVTVSS
B4: PMP8B10 (VHH)
VHH: EVQLVESGGGLVQAGASLRLSCAASGLAFSRYAMGWFRQAPGKERESVAAISSSGDNIYYADSVKGQFTMSRDNAKSSVYLQMINLKPEDTAVYYCAATSPLFVASDYFEASRYGYWGQGTQVTVSS
B5: PMP13B4 (VHH)
VHH: EVQLVESGGGLVQAGGSLRLSCAASGFTFDDYAIGWFRQAPGKEREAVSCISSSDGSTYYADSVKGRFTISSDNAKNMVYLQMNSLKPEDTAVYYCAADLLRTAVGCLDYRGTYYPRTTMDYRGKGTLVTVSS
B6: PMP8A1 (VHH)
VHH: EVQLVESGGGLVQPGGSLRVSCAASGFTFNDYIMGWFRQAPGKERMFIAAISGTGTIKYYGDLVRGRFTISRDNAKNTVYLRIDSLNPEDTAVYYCAARQDYGLGYRESHEYDYWGQGTQVTVSS
B7: PMP13C1 (VHH)
VHH: EVQLVESGGGLVQPGGSLRLSCEASGFTWDYYVIGWFRQAPGKEREGLSCISSDGSTTYADSVKGRFTISRDNAKNTVYLQMNSLEPEDTAVYYCATDPALGCYSGSYYPRYDYWGQGTQVTVSS
B8: PMP1B2 (VHH)
VHH: EVQLVESGGGLVQAGGSLRLSCAASGPTFSADTMGWFRQAPGKEREFVATIPWSGGIAYYSDSVKGRFTMSRDNAKNTVDLQMNSLKPEDTALYYCAGSSRIYIYSDSLSERSYDYWGQGTQVTVSS
B9: PMP13E12 (VHH)
VHH: EVQLVESGGGLVQAGGSLRLSCAASGRTFSRYIMGWFRQAPGKEREFVGAISRSGDITSFADFVKGRFTMSRDNAKNTLYLQMNSLEPEDTAVYSCAANSDTYYIYSDIVVPERYDYWGQGTQVTVSS
B10: PMP13D1 (VHH)
VHH: EVQLVESGGGLVQPGGSLRLSCATSGFTEDYYVIGWFRQAPGKEREGVSCMSSSGDSTTYADSVKGRFTISRDNAKNMVYLQMTSLKPEDTAVYYCAADFALGCYSGSYYPRYDYWGQGTQVTVSS
B11: PMP23E5 (VHH)
VHH: EVQLMESGGGLVQAGGSLRLSCAASGGTFSSYAMGWFRQAPGEERDFVAAIGWSGNSPYYAQFVKGRFTISRDNAKNTVHLQMNSLKPEDTAVYYCAAAHNTMGSDYEGYDYWGQGTQVTVSS
B12: NC41v06 (VHH)
VHH: EVQLLESGGGLVQPGGSLRLSCAASGGSLSNYVLGWFRQAPGKGREFVAAINWRDDITIGPPNVEGRFTISRDNAKNTLYLQMNSLRPEDTAVYYCGAGTPLNPGAYIYDWSYDYWGQGTLVTVSS
B13: NC41v17 (VHH)
VHH: B12 VHH with D55G, A75S
B14: NC41 (VHH)
VHH: EVQLVESGGGLVQAGGSLSISCAASGGSLSNYVLGWFRQAPGKEREFVAAINWRGDITIGPPNVEGRFTISRDNAKNTGYLQMNSLAPDDTAVYYCGAGTPLNPGAYIYDWSYDYWGRGTQVTVSS
B15: LG192H1 (VHH)
VHH: EVQLVESGGGLVQAGGSLRLSCAASGIIFSTNHMGWYRRAPGKQRELVGTINRGDSPYYADSVKGRFTISRDNAKNMVYLQMNSLKPEDTAVYYCNAGYIYWGQGTQVTVSS
B16: LG192F2 (VHH)
VHH: EVQLVESGGGLVQAGGSLRLSCEASGRTFSPIAMGWFRQAPGKEREFVAVVTRWSGARTVYADSVKGRFTISRDNAENTVYLQMNSLKPEDTAVYTCAADSTNRNSGAIYYTWAYDYWGQGTQVTVSS
B17: LG192C6 (VHH)
VHH: B16 VHH with F29E, S30R, P31Y, I32Q, S106R
B18: LG191D3 (VHH)
VHH: EVQLVESGGGLVQAGGSLRLSCEASGRTYSRYGMGWFRQAPGKEREFVAAVSRLSGPRTVYADSVKGRFTISRDNAENTVYLQMNSLKPEDTAVYTCAAELTNRNSGAYYYAWAYDYWGQGTQVTVSS
B19: LG192H2 (VHH)
VHH: B16 VHH with P31N, I32Y, A57G, I109W, Y117H
B20: LG192A8 (VHH)
VHH: EVQLVESGGGLVQAGGSLRLSCAASERTVIAYTMGWFRRAPGKERDFVAAMNWNGGNTIYADSAKGRFTISRDNAKNTVYLQMNSLKAEDTAVYYCAARPRFWGSYEYDYWGQGTQVTVSS
B21: LG192C10 (VHH)
VHH: EVQLVESGGGLVQAGGSLRLSCAASEGYFRNYMVGWFRQAPGGERMFVAAISDTAYYADSVKGRFTISRDNAKNTVYLPMNSLKPEDTAVYYCAAAPKSWGTWPLVADTRSYHFWGQGTQVTVSS
B22: LG191B9 (VHH)
VHH: EVQLVESGGGLVQAGGSLRLSCAASGRTFSSSFMAWFRQVLGSDREFVGGISPGGRFTYYADSRKGRFTISGDNANNTVYLQMHSVKPEDTATYYCAADTQFSGYVPKETNEYDYWGQGTQVTVSS
B23: LG191E4 (VHH)
VHH: B8 VHH
B24: LG192B1 (VHH)
VHH: EVQLVESGGGLVQPGGSLRLSCAASGLTFRNYAIGWFRQAPGKEREGVSCINSGGSITDYLDSVKGRFAISRDNAKSTVYLQMNSLKPEDTAVYYCATDLTSSCPIYSGTDYWGKGTLVTVSS
B25: LG192C4 (VHH)
VHH: EVQLVESGGGLVQAGGSLRLSCEASGRTFSSYAMVGWFRQAPGKEREFVAAVTRWSGARTVYADSVKGRFTISRDNAENTVYLQMNSLKPEDTAVYTCAADSTNRNSGAVYYSWAYDYWGQGTQVTVSS

What follows are binders tested against T1, FTM-NN protein (membrane anchorless form of the Long fusion protein of hRSV, 70 kDa) (human respiratory syncytial virus, …, UniProt P12568 26-524) (assay: competition ELISA, periplasmic extract diluted 1:1000, competitor 101F Fab).
B1 was tested, and the “% Inhibition 101F Fab (1:1000 PE)” value was 13%. With B2 the “% Inhibition 101F Fab (1:1000 PE)” value was 5%. In the case of B3, the “% Inhibition 101F Fab (1:1000 PE)” value is reported as 5%. With B4 the “% Inhibition 101F Fab (1:1000 PE)” value was 6%. B5 was tested, and the “% Inhibition 101F Fab (1:1000 PE)” value was 20%. With B6 the “% Inhibition 101F Fab (1:1000 PE)” value was 20%. In the case of B7, the “% Inhibition 101F Fab (1:1000 PE)” value is reported as 9%. With B8 the “% Inhibition 101F Fab (1:1000 PE)” value was 25%. In the case of B9, the “% Inhibition 101F Fab (1:1000 PE)” value is reported as 8%. For B10, the “% Inhibition 101F Fab (1:1000 PE)” value was 16%.

These binders were tested against T1, FTM-NN protein (membrane anchorless …) (assay: ELISA, periplasmic extract on immobilised F protein; signal as fold over blank).
B1 was tested, and the “Binding RSV-A, Fold blanc” value was 2.9 fold over blank. B2 was tested, and the “Binding RSV-A, Fold blanc” value was 3.5 fold over blank. For B3, the “Binding RSV-A, Fold blanc” value was 4 fold over blank. For B4, the “Binding RSV-A, Fold blanc” value was 3.5 fold over blank. For B11, the “Binding RSV-A, Fold blanc” value was 3.4 fold over blank. In the case of B5, the “Binding RSV-A, Fold blanc” value is reported as 2.7 fold over blank. B6 was tested, and the “Binding RSV-A, Fold blanc” value was 3.7 fold over blank. B7 was tested, and the “Binding RSV-A, Fold blanc” value was 3 fold over blank. With B8 the “Binding RSV-A, Fold blanc” value was 3.8 fold over blank. B9 was tested, and the “Binding RSV-A, Fold blanc” value was 3.7 fold over blank. For B10, the “Binding RSV-A, Fold blanc” value was 3.1 fold over blank.

These binders were tested against T1, FTM-NN protein (membrane anchorless …) (assay: competition ELISA, periplasmic extract diluted 1:300, competitor 101F Fab).
B1 was tested, and the “% Inhibition 101F Fab (1:300 PE)” value was 46%. B2 was tested, and the “% Inhibition 101F Fab (1:300 PE)” value was 27%. For B3, the “% Inhibition 101F Fab (1:300 PE)” value was 27%. With B4 the “% Inhibition 101F Fab (1:300 PE)” value was 31%. For B11, the “% Inhibition 101F Fab (1:300 PE)” value was 16%. In the case of B5, the “% Inhibition 101F Fab (1:300 PE)” value is reported as 47%. For B6, the “% Inhibition 101F Fab (1:300 PE)” value was 55%. B7 was tested, and the “% Inhibition 101F Fab (1:300 PE)” value was 37%. B8 was tested, and the “% Inhibition 101F Fab (1:300 PE)” value was 58%. In the case of B9, the “% Inhibition 101F Fab (1:300 PE)” value is reported as 28%. For B10, the “% Inhibition 101F Fab (1:300 PE)” value was 52%.

These binders were tested against T2, FTM-NN (membrane anchorless form of the Long fusion protein, 70 kDa) (human respiratory syncytial virus, …, UniProt P12568 26-524) (assay: SPR (Biacore), Ftm-NN protein immobilized on chip, Nanobody as analyte).
T2 construct: domain: membrane anchorless form of the fusion protein
B12 was tested, and the Kd was 2.5 nM, the koff was 0.0048 s⁻¹ and the kon was 2e+06 M⁻¹ s⁻¹. For B13, the Kd was 3.2 nM, the koff was 0.0059 s⁻¹ and the kon was 1.9e+06 M⁻¹ s⁻¹. In the case of B14, the Kd is reported as 4 nM, the koff is reported as 0.0067 s⁻¹ and the kon is reported as 1.7e+06 M⁻¹ s⁻¹.

The binders below were run against T1, FTM-NN protein (membrane anchorless …) (assay: competition ELISA, periplasmic extract diluted 1:100, competitor 101F Fab).
In the case of B1, the “% Inhibition 101F Fab (1:100 PE)” value is reported as 74%. In the case of B2, the “% Inhibition 101F Fab (1:100 PE)” value is reported as 74%. For B3, the “% Inhibition 101F Fab (1:100 PE)” value was 82%. For B4, the “% Inhibition 101F Fab (1:100 PE)” value was 56%. With B11 the “% Inhibition 101F Fab (1:100 PE)” value was 37%. With B5 the “% Inhibition 101F Fab (1:100 PE)” value was 82%. With B7 the “% Inhibition 101F Fab (1:100 PE)” value was 57%. In the case of B8, the “% Inhibition 101F Fab (1:100 PE)” value is reported as 82%. In the case of B9, the “% Inhibition 101F Fab (1:100 PE)” value is reported as 74%. In the case of B10, the “% Inhibition 101F Fab (1:100 PE)” value is reported as 78%.

Each binder was assayed against T3, hRSV FTM- protein (membrane anchorless form of the fusion protein, 70 kDa) (human respiratory syncytial virus, UniProt P12568 26-524) (assay: SPR (Biacore T100), FTM- amine-coupled on CM5 chip, 1:1 Langmuir fit).
T3 construct: extracellular domain
Work on B15 yielded a Kd of 3.72 nM, a koff of 0.00611 s⁻¹ and a kon of 1.65e+06 M⁻¹ s⁻¹. In the case of B16, the Kd is reported as 7.14 nM, the koff is reported as 0.00577 s⁻¹ and the kon is reported as 807000 M⁻¹ s⁻¹. In the case of B17, the Kd is reported as 7 nM, the koff is reported as 0.00808 s⁻¹ and the kon is reported as 1.15e+06 M⁻¹ s⁻¹. In the case of B18, the Kd is reported as 2.05 nM, the koff is reported as 0.00324 s⁻¹ and the kon is reported as 1.59e+06 M⁻¹ s⁻¹. Work on B19 yielded a Kd of 15.4 nM, a koff of 0.0128 s⁻¹ and a kon of 829000 M⁻¹ s⁻¹. B20 was tested, and the Kd was 2.91 nM, the koff was 0.000937 s⁻¹ and the kon was 322000 M⁻¹ s⁻¹. Work on B21 yielded a Kd of 3.49 nM, a koff of 0.000613 s⁻¹ and a kon of 175000 M⁻¹ s⁻¹. With B22 the Kd was 25.4 nM, the koff was 0.00492 s⁻¹ and the kon was 194000 M⁻¹ s⁻¹. For B23, the Kd was 0.7 nM, the koff was 0.000208 s⁻¹ and the kon was 298000 M⁻¹ s⁻¹. Work on B24 yielded a Kd of 55.5 nM, a koff of 0.0127 s⁻¹ and a kon of 229000 M⁻¹ s⁻¹. B25 showed a Kd of 7.47 nM, a koff of 0.00846 s⁻¹ and a kon of 1.13e+06 M⁻¹ s⁻¹.
